Results from patent publication US20140271653A1.

Columns and labels:
Experiment in all cases: cell-based or functional assay
[1] = molecular target: RSV-F of RSV subtype B strain 9320 (respiratory syncytial virus subtype B, strain 9320)
[2] = molecular target: RSV-F of RSV subtype A clinical isolate A1997/12-35 (respiratory syncytial virus subtype A, clinical isolate A1997/12-35)
[3] = molecular target: RSV-F of RSV subtype A clinical isolate A2001/3-12 (respiratory syncytial virus subtype A, clinical isolate A2001/3-12)
[4] = molecular target: RSV-F of RSV subtype A strain Long (respiratory syncytial virus subtype A, strain Long) (UniProt P12568)
Chain of RSV-F of RSV subtype A strain Long (respiratory syncytial virus subtype A, strain Long) (P12568 26-574): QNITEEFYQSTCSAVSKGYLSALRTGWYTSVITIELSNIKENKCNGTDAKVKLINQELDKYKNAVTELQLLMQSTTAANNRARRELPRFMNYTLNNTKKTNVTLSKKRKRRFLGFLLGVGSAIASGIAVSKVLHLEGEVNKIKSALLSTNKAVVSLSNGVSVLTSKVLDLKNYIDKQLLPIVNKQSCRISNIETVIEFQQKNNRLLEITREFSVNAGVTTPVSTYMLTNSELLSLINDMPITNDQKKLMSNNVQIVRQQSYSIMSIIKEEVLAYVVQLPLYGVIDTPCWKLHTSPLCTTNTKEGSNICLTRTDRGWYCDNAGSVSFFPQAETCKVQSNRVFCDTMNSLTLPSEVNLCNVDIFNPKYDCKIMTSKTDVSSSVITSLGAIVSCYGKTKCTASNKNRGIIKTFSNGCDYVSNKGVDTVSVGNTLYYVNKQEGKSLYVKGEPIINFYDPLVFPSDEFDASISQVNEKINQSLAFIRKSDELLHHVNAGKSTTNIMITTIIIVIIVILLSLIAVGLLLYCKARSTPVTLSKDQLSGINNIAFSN

[5] = molecular target: RSV-F of RSV subtype A clinical isolate A1998/12-21 (respiratory syncytial virus subtype A, clinical isolate A1998/12-21)
[6] = molecular target: RSV-F of RSV subtype A clinical isolate A2001/2-20 (respiratory syncytial virus subtype A, clinical isolate A2001/2-20)
[7] = molecular target: RSV-F of RSV subtype A strain A2 (1540) (respiratory syncytial virus subtype A, strain A2 (1540)) (UniProt P03420)
Chain of RSV-F of RSV subtype A strain A2 (1540) (respiratory syncytial virus subtype A, strain A2 (1540)) (P03420 26-574): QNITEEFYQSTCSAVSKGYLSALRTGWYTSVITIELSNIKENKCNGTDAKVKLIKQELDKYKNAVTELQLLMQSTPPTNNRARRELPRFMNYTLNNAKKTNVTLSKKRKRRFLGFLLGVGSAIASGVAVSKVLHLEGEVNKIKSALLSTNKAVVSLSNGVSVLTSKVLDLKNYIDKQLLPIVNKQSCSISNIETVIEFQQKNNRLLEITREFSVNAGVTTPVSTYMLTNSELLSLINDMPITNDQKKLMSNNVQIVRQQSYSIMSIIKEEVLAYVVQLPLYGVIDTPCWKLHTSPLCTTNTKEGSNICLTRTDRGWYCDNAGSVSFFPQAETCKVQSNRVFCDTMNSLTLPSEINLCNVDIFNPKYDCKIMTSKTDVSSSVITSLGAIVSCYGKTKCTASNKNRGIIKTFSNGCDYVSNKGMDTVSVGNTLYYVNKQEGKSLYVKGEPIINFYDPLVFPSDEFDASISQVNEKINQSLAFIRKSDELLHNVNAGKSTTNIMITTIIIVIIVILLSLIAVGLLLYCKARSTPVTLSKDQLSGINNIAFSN

[8] = molecular target: RSV-F of RSV subtype A clinical isolate A2000/3-4 (respiratory syncytial virus subtype A, clinical isolate A2000/3-4)
[9] = molecular target: RSV-F of RSV subtype B strain 1A2 (respiratory syncytial virus subtype B, strain 1A2)
[10] = molecular target: RSV-F of RSV subtype A clinical isolate A1998/3-2 (respiratory syncytial virus subtype A, clinical isolate A1998/3-2)
[11] = molecular target: RSV-F of RSV subtype B strain 1400 (respiratory syncytial virus subtype B, strain 1400)
[12] = molecular target: RSV-F of RSV subtype B strain 18537 (respiratory syncytial virus subtype B, strain 18537) (UniProt P13843)
Chain of RSV-F of RSV subtype B strain 18537 (respiratory syncytial virus subtype B, strain 18537) (P13843 26-574): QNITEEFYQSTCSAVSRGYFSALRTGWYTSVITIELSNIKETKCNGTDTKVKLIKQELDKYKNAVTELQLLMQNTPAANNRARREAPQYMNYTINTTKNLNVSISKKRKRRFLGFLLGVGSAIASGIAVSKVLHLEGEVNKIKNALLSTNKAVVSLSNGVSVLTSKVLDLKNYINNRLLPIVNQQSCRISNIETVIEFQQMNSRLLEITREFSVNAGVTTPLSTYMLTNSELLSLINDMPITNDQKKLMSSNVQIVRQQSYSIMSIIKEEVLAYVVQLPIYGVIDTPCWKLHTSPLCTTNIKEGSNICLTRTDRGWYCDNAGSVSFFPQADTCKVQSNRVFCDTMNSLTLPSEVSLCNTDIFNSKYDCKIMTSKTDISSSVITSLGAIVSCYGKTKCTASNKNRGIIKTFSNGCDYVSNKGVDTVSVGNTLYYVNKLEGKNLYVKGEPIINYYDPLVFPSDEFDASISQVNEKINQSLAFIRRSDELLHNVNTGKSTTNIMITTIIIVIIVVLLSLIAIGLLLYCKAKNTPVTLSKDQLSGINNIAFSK

Chain of Control III (AM-22) (antibody) (VH): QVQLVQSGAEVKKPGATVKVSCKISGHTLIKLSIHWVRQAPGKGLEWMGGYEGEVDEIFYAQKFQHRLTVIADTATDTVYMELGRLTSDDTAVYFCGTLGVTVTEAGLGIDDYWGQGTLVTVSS
Chain of Control III (AM-22) (antibody) (VL): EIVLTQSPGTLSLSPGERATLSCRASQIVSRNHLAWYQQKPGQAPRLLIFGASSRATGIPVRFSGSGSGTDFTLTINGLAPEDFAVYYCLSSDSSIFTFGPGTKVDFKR

**Q.** How did the IC50 (pM), RSV micro-neutralization, B/9320 [1] turn out when Control III (AM-22) (antibody) was run?
**A.** 2510 pM

**Q.** What about the IC50 (pM), RSV micro-neutralization, clinical isolate [2] of the same substance?
**A.** 20 pM

**Q.** What about the IC50 (pM), RSV micro-neutralization, clinical isolate [3] of the same substance?
**A.** 60 pM

**Q.** And the IC50 (pM), RSV micro-neutralization, A/Long [4]?
**A.** 86 pM

**Q.** And the IC50 (pM), RSV micro-neutralization, clinical isolate [5]?
**A.** 43 pM

**Q.** And the IC50 (pM), RSV micro-neutralization, clinical isolate [6]?
**A.** 72 pM

**Q.** And the IC50 (pM), RSV micro-neutralization, A/A2 [7]?
**A.** 91 pM

**Q.** What about the IC50 (pM), RSV micro-neutralization, clinical isolate [8] of the same substance?
**A.** 55 pM

**Q.** And the IC50 (pM), RSV micro-neutralization, B/1A2 [9]?
**A.** 580 pM

**Q.** And the IC50 (pM), RSV micro-neutralization, clinical isolate [10]?
**A.** 31 pM

**Q.** What about the IC50 (pM), RSV micro-neutralization, B/1400 [11] of the same substance?
**A.** 190 pM

**Q.** And the IC50 (pM), RSV micro-neutralization, B/18537 [12]?
**A.** 660 pM
